Molecular target: T1, eukaryotic translation initiation factor 4E (eIF4E) (UniProt P06730 1-217)
T1 construct: eukaryotic translation initiation factor 4E; Expressed from a pET SUMO vector; The SUMO tag was cleaved with Ulp1 and removed on Ni-NTA; source: E. coli BL21-CodonPlus (DE3)-RIPL, purified (Ni-NTA, S75 gel filtration)
Test: ITC; MicroCal ITC200; data collection as detailed in ref. 11; KD as mean and standard deviation of repeat samples (n = 3 for 5p-4E-BP2, n = 2 or 1 for the other variants)
Conditions: both partners purified

T1 sequence (P06730 whole entry): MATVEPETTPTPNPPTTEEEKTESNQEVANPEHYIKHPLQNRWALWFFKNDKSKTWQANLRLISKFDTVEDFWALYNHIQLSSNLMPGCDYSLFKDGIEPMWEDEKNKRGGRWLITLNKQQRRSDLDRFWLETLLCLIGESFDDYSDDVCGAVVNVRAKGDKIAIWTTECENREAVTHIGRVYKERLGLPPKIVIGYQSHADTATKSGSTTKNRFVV

Kd: 15 µM
B1: five-phospho 4E-BP2 (pT37/pT46/pS65/pT70/pS83) (natural protein, UniProt Q13542 1-120, looked up)
chain: MSSSAGSGHQPSQSRAIPTRTVAISDAAQLPHDYCTTPGGTLFSTTPGGTRIIYDRKFLLDRRNSPMAQTPPCHLPNIPGVTSPGTLIEDSKVEVNNLNNLNNHDRKHAVGDDAQFEMDI
modifications: phosphothreonine at 37, 46 and 70; phosphoserine at 65 and 83
notes: also called 5p-4E-BP2; WT 5p-4E-BP2; source: E. coli BL21-CodonPlus (DE3)-RIPL, purified (Ni-NTA, S75 gel filtration); phosphorylated with Erk2, purified again by gel filtration

From PMC7305185, “Non-cooperative 4E-BP2 folding with exchange between eIF4E-binding and binding-incompatible states tunes cap-dependent translation inhibition” (Nature Communications, 2020)
